From the domain aggregation screens of Martell et al. (2025)

Experiment: soluble fraction after stress (log2 fold change); higher = more stays soluble; pooled small domains, quantitative proteomics
Conditions: stress: 50 degC
In short: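 Pooled custom libraries of small protein domains were each held under stress at 50°C. The read-out, high-throughput quantitative proteomics, tracked how much of each protein stayed soluble. This is reported as a base-two log fold change used to indicate aggregation propensity. Higher values mean more protein remains in solution.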

Sequence | soluble fraction (log2)
HMKSSTEIIYSDFLREVSNGQISEVTIQGDFVRGLFLSGSSFQTYAPKDSNLINILRDKKVRIKVHPP | -0.134
HMMQEIKLEVINNEELRIDNYINLAGIGLSRSYIQKLIKDGVILVNGKEVKSSYKVSLGDIISVQIPDPG | 0.299
HMGREVVVPNLAGIEKEVALDLLKKNRLGGMITGTRFSSDFPAGQVIQQMPEAGSRVKVGKQVKLVLSEG | 0.323
HMETVSFNPDIAVIPDYRHVVILGETTKTIANKYDIPVDILKAANPGLGNNVTKGDRLRVPDKTKLQ | 0.155
HMPLLSEWDAALEELWAKLGDVPMDPETERMDAPFLGFPAGTPREDIWHWFDERHSKGVAHLLYG | -2.37
HMRDSYTFEDIEKLKDSYLQDSEKALEKLISIYEDTNQSLAIRTAALDIITDSQDPTFKLALEKIIS | 0.0263
HMELKYIDYDEALVVYAKTVTASGGGLSGVKDEGGIRKVLDFVQNDLYYPTFVDKLTYLVFGL | 0.103
HMRKDYTVLYSAVNAEEATEIVSKLQESGVAYQYKDNGDVLVDKKQVDKVRAQLAQEGYPKS | 0.164
HMQQNYREMHKVKKGETLFGIARRYEITVDQLIKANPDMNAVGYELKKGDYIFIPYPDGQKP | -0.13
HMYDNTVTKYVNSLSVYVRKGPSTSDEIVTSLIKDTDVTVVGENGEWYKIKYKEFEGYIYKNLLSDNKT | -0.254
HMIHSEDMDDHILGHKLVDQYLNKHIEFDNIKKAWNYHTVAIKKFGRYPHRNKILKRESTIEEIDFLKQP | 0.149
HMKKGATVSGVIVEKTKKSLIIDLGAKTEGVVADKEFEFAIDFVKELKKGDEVKAIVISTDNDKGQVVLSL | -0.155
HMEENIKKDIEVPNIEGLTIDEAKKRLKEVNLNISIEDMEEKEGTEIITQQLPKAGIKVKEGVAIIAY | 0.0824
HMETKIKFQIQTLDELNIRKVADWDAKAITTVKKGQILDVVDTVAAKNGSTPMYRLESGLYITASPKYVKK | -0.376
HMAVFSKKQIFDTAFALFESKGLEAITARNLGKALSSSPAPIYAHYSSITELKNELISVAKDR | -2.25
HMNDGEIAAPVSGTLQSFKVEDGQTVSEGDLVAVMEAMKMETQILATKGGTIRLLVKEGDYLQAGHALMTI | -0.525
HMHLTRYQYKVETEQEAVGLKELSSVHDLQIKENEATFQADSDAIDEILKTLLLYGVKKLEATPPTLED | -0.0366
HMGPPLISLDDGLAKGFGVGVGDTLTINILGRRITATIASLREIDWQSLRFDFAVVLSPGVLEGA | 0.0913
HMKKYLNIYNIIVNKIESKEYQSNDKLPSEKELMDQYNVSRDTVRKSLNMLEQNGYIQKTKGKGSFVLDIN | -0.634
HMATNVLEISTRNKNILIQDSLNLVESFYSKSDNQYWYKLVFKTKDDLNKFLQEVSEDENTITYKTSSI | 0.217
HMASQEESVATYIQDYYRNPKTGESMVSDDMVEEFYKTHPEWEDQADGSKEGMEAVLDNFNEFFEINYG | 0.0827
HMSFSSLSNDILSEIQKDNNITYDELSEKLQKDRATIYRNMKKLVENGLLKRVGGRKSGHWEIIE | 0.189
HMTNVFSIIGKKALVIKDIDPIHSSGQIKLNGEVWSAETENDEIIKEGSEVEVLKINGVKAIVKLV | -0.107
HMQNVFARKNLTSVSVDKLGEEEILLFKQSFESKNLTSSEALRDLSKKGMSEAELRKLKVRLTQL | -0.074
HMYYQEDHDIILEETEDVTDPYLITLRGYIFLNNLQWVAARQAFLSADERFRHRHYSALIAPIMQTIDNAA | -0.013

Sequence | soluble fraction (log2)
HMKGKITTNWVSLTSDLGWLRSELYSSGSVLEERISNEGLIELHLENFQNDLIKLLEVEGFDLIKE | -3.1
HMTYSAWIEKAYSELEKKGITEAELSDALDKRGINLEDLKLMGPDEAVKYQSEVEGVVLELSKSKE | -0.0868
HMTVLIDEQSSDGLLKITVTANTAVKSITIADELLEDKEQLEDYLILVLNKAIARANQVNQTELDAVAK | 0.317
HMKWYDSDKGFGFLSQEEGEDVYVRSSALPAGVEGLKAGQRVEFGIASGRRGPQALSL | -0.0714
HMIEGEQVRLLRLLERQEGGMLPLGDKSPASDILLLTGMSKKTFKMAVGALYKAQMITMTPTSIKLVK | -0.684
HMRQDEKTLLYWIGAQVKREGKLIKTSTAQYLVEKTGTDMENLEKELEKLFAYTLDEKEITPAAIDEI | -1.8
HMRDYDFGNLLYKLRIESGYTQKDIADMLGVTDKAVSKWENGIAKPTTNNIKLLSTIYNVSVEELLNG | -0.254
HMRGSRIFSGDVSPLTLPANSPFFSGYTEFKPGDVYVERSATNIAMWEWKSQPGGYTWVKTADIA | -0.169
HMNKELVVPDLTDMRVKDAEFEAHQVGMRTEIVDSVYVRRLKRGYVYKQNPVPGSKVKKGRRIALTINAV | 0.202
HMEKLSMLKIKELFRLAIEMNLSHRQIAQSLNVSHTVVNRYLKRFKKSNLSYETLLKLGDKEIISALYEH | -2.29
HMANMTAKQINMFGDKLSRDKDFQSYYIAKSGDSREQYAQDIKGKLLDPFYVNAWMPYLEKIGFVPS | 0.00797
HMSLPTYVQISEAIARRITAGQWLDGERLPPERTMAAEFGVAVGTLRKALSRLQDQKLLRRLQGSGNYINI | -1.57
HMTTQVNTVKIQLANGYEMTVLTSKTNVKEILEDNNIILENNEKVTPNIDEEISSNKTIKITDKSN | 0.146
HMAPDAPDGFVHRWIRAEMLGQEDKSNVHRRMQEGYELVRADEYPDSDLPVAEGRYAGIIGVGGLLLARF | -0.14
HMAISEEEATNLALERVPGASAQDLRIQLEFDDGVQKYEGDIIYDGKEYDFEIDANTGTFLEWSE | -0.151
HMKEFSFNGGKVIMNYEADRIQIKHDSRPNQEVITLMKRNGFKWSPTNQAWQRQITGNAIYVTKNLLKS | -1.35
HMSNTVEDLIDDIGTVTKDSKDKIDAARKAYDGLTEDQKKLVPDSVLKTLTDAEAAYAKLTK | -0.0576
HMDKLEKRILDYLLQKSAIDGSTILKISHREMAMDLGTAREVVTRILKKLETGGFVRQGENYLEILK | -0.145
HMKSVILQLHPETLRWIREEAQADMADASVIQLLNDWELGTKKPTLSQVQKLSHETHIPFGYFFLKEKPA | -0.45
HMRSQLALVVRTGESQRLDNFLVNNLAWKSRNRLQGLIREGLVTVNGEKTKASRRVHLDDLVEIHL | -1.25
HMEVLPLHQVKLKYAEADTILIALKSAQSMLSPRGQLLADNRSQQIFVYDDEAHTATLIEAIKHLDQPL | -0.0429
HMGGLAEGTKITLQNTVNVRASMGEDAEKIGTAYAGEKVTVIMSYAEGWTKVTWNDKTGYIKTSLL | -0.634
HMSDRLRLGRRIRAARLEQNLSQAALAERLGISASYLNLLEHDRRSLTTVLLLKLAQVLGLELRDLAAG | -1.99
HMGLIDNLTRIMEKKNISAYQLEKAGIVKQTTFTSWKKGTQPALDKIIKIMQYIEVTPNELFGY | -1.39
HMGNIYKALLGKLEKQLGFLPEGTKLPPEQELAEKFGVSKPTLRRALAELAVRGIIVKQNGIGSVVAGS | -0.142

Sequence | soluble fraction (log2)
HMGSSLLSPKEREVLQLLAGNLSNKQIALAMGVSDETIKWHLRNLFGKLNAGGRKHLIDRARMLGLLAAA | -0.6
HMLLSEPSVLKFNDDNSYEIVSGFLTEYKDKIVKIERRYKKATVKITVAGEEKEIKVSFVEDTE | -0.161
HMLDYQLQVFKDTLEANRKHRGQKIVFIHGKGEGVLRRALIHALNYQYKKFTYQDASFREYGYGATQVTI | -0.103
HMSMFSEILRTLRKAKGLTQRELAGHLGVTQQMVAKWEKGQSTPGPDQLTRMAELLEVSTDTLLGR | -0.162
HMDDTRLLSEIGLSQRVLNALRARGIERVGQVLAMRPDQLLGIRNFGPRALQELRERLQENGYTEGPLFSG | 0.309
HMLMKILTDALEKMSPEELKELAEATGVKNTSSITPETMVGVFQAVFRVGGFKSYQLTLIIVNAVLKA | -0.126
HMEVGVSGTVFNTDSLNVRKGPGTNFDTVTSLKRGSVVEVFEQSAVDGTVWGRIANGWVNMQYVSL | -0.093
HMTVVIKVQASQLESWKSSAGTEIKAKLIAVEDEKTYLFVTETGKTIRATAAQLDESSVSRARKLAGL | -1.03
HMFDTVKIGKRIAELRKKRDMTQFELADRLGISYQAVSNWERGNSMPDIAKLPELAEIFGVTVDEILG | 0.161
HMHHIDYKQLRRINPVAARRAVLDYLESTGGNITKTAQVFSINRSVVYDILKKQASGDLSDRLRIP | -1.32
HMDAKNNPQVMAQIRAILTAKGLSEDEVKTRLKTKNIDVDKMTDQEIIAQRPAIEAIINEMEQEKKQKMG | 0.252
HMLAAGTPLTVVTESSNLNIRQEPSTEAAVVGKAAKGEIVTLVEQTSGEWWKVSTKDGEEGYAYSRYL | 0.341
HMVSFSIDEALVSAVKGPRSANVMSIQRQFLVRLSVERDGRVTITGANSKSVQQAREAVEAAVEEAKLHP | -0.827
HMSNRDNPVVLDFKKVKSTEQLDNILEEYIRENFEGYTVKGRMFSSDEGKFIIALALKDDDGKRALVYFDV | -0.635
HMVFLPDEIFRLKVIKAGEGPEQGVGYLDDGTMVVIEGARDRIGDELEVRVTSTLQTNAGKMIFTKFE | -0.186
HMNEVETWSVQADGATGRIDKWLAEQNEWSRSQVQEWLKAGRVEVDGRVVKPNYKLSGTESIAVHIPEAV | -0.0928
HMKIDLPIWLNKKAWEAWVEYKKERKQKLTPSIIKFQLRILEKNKEDHPEIIRNSITNGWTGLFPLK | -1.27
HMSPSSPNQILGQYPKTKNDIILSSGRYGPYLKYNKKNYSLGNNISVEKLSLEEAVKIIDLKDKK | 0.0457
HMGSGKGAAHTILGISADASDDEIKAAWRKLVQENHPDKLVSQGLPDEFVQAATDRLRLINTAYQSMLNRP | -0.0378
HMYSFPHQLLKLRTEKQLSQAELATRLFVSRQAVSKWENGDAEPSIDKLILLAKVFNVSLDRLILGT | -1.43
HMGGPAGPDFTYTGDDLTRIDYDDGSYKVFTYDAGKLSQIDFTSGGTTTRKTFVYSGDTLIRVDQTI | -0.44
HMGAQPLIEPLSERELEVLALIAEGLTNAEIGRRLFIATGTVKRHVNTIYGKLDVHGRIEAIARARDLHLI | -0.276
HMEKYTDDLEIAAEIARLETLMEGNGRVLIRPSGTEPLVRVMIEGNDIEQITKLAEDLAALLNKRF | -0.747
HMSPAVEDYLEQIHNLIAQKGYARVVDIAGNLKISQASVTNMIQRMDADGLVVYERYRGVVLTETGRK | -1.3
HMDNTSNVEKTLRFIRQRGKVSRKEVETLLGSSKFPAISALNELLAENKIVKTGSGPAVRYSVS | -0.0887
